Molecular target: T1, human Melanoma-associated Chondroitin Sulfate Proteoglycan (MCSP) (human, UniProt Q6UVK1 30-2322)
T1 construct: whole, on cells; also called CSPG4; NG2
Test: flow cytometry on B16F10-MCSP (C25) cells, detected with Strep-PE or fold-specific anti-H-2K antibody

T1 sequence (Q6UVK1 30-2322): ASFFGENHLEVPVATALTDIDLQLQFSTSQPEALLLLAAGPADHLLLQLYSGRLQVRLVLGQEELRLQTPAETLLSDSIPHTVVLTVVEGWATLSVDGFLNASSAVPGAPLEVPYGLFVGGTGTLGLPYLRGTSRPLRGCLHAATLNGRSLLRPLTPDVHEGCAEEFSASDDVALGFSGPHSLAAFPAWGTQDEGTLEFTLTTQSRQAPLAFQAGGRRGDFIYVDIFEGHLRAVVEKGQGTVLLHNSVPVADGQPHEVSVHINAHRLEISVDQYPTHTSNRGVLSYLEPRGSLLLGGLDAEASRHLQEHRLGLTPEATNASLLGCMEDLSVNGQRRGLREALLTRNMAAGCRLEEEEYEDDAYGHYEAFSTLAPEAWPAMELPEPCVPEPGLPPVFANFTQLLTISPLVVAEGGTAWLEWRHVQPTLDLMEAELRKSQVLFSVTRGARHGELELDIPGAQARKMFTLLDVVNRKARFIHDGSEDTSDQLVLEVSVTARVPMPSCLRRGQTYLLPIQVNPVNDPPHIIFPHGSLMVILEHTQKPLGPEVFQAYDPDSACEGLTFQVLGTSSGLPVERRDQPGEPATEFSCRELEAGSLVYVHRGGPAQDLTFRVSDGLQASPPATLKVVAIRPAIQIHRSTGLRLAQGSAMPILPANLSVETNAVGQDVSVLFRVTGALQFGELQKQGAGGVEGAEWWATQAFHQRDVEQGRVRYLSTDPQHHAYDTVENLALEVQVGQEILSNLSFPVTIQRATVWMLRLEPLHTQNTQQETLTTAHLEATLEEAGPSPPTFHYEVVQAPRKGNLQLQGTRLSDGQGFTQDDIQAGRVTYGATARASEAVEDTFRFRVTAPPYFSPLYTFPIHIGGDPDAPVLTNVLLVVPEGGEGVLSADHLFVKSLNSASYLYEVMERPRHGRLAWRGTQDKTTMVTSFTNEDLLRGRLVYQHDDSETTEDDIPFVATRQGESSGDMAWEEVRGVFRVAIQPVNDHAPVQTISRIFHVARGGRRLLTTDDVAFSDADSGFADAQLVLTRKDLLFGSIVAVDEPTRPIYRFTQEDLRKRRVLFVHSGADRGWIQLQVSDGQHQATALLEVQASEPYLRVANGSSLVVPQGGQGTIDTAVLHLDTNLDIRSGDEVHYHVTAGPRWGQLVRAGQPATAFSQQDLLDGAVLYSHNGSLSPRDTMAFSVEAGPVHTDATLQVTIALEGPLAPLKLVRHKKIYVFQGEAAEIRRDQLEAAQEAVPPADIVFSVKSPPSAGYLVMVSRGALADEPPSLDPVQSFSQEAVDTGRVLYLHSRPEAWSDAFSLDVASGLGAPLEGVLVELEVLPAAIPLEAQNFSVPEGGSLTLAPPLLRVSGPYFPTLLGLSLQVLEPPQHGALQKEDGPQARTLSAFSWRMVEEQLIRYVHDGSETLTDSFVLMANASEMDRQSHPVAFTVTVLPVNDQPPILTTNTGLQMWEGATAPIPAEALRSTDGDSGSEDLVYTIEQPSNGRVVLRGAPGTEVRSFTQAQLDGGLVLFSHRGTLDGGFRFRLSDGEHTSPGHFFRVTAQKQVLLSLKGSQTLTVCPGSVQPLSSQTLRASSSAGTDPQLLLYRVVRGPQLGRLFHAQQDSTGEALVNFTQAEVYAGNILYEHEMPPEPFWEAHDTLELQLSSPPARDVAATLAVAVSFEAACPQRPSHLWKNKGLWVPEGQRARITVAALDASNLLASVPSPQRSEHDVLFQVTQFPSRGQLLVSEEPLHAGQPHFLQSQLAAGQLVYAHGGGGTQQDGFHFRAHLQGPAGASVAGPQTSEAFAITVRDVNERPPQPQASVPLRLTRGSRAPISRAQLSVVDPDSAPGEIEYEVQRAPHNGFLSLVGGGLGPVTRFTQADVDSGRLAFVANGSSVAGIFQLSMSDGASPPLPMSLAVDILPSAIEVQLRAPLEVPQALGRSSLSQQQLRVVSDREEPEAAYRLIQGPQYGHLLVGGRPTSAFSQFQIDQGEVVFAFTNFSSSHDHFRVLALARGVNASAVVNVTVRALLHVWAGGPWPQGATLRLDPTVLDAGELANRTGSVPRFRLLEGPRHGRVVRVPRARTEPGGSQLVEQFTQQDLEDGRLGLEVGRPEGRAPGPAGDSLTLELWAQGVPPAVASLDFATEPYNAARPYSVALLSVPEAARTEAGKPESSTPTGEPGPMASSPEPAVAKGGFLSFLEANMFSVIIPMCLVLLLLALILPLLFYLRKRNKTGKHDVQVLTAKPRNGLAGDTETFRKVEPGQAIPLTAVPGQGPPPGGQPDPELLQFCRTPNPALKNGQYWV

B1: BA3 biotinylated peptide-H-2Kd-anti-MCSP scFv fusion protein, 20 amino acid β2M-MHC linker (peptide-MHC)
chain: TYQRTRALVGGGGSGGGGSGGGGSIQKTPQIQVYSRHPPENGKPNILNCYVTQFHPPHIEIQMLKNGKKIPKVEMSDMSFSKDWSFYILAHTEFTPTETDTYACRVKHVSMAEPKTVYWDRDMGGGGSGGGGSGGGGSGGGGSGPHSLRYFVTAVSRPGLGEPRFIAVGYVDDTQFVRFDSDADNPRFEPRAPWMEQEGPEYWEEQTQRAKSDEQWFRVSLRTAQRYYNQSKGGSHTFQRMFGCDVGSDWRLLRGYQQFAYDGRDYIALNEDLKTWTAADTAALITRRKWEQAGDAEYYRAYLEGECVEWLRRYLELGNETLLRTDSPKAHVTYHPRSQVDVTLRCWALGFYPADITLTWQLNGEDLTQDMELVETRPAGDGTFQKWAAVVVPLGKEQNYTCHVHHKGLPEPLTLRWKLPPSTASGGQVKLQQSGGGLVQPGGSMKLSCVVSGFTFSNYWMNWVRQSPEKGLEWIAEIRLKSNNFGRYYAESVKGRFTISRDDSKSSAYLQMINLRAEDTGIYYCTSYGNYVGHYFDHWGQGTTVTVSSGGGGSGGGGSGGGGSDIELTQSPKFMSTSVGDRVSVTCKASQNVDTNVAWYQQKPGQSPEPLLFSASYRYTGVPDRFTGSGSGTDFTLTISNVQSEDLAEYFCQQYNSYPLTFGGGTKLEIKRAHHHHHHGLNDIFEAQKIEWH
notes: also called BA-biotin fusion molecule; biotinylated ScFv-MHC molecule
- binding result: binds

Reference: US20200385441A1 (TECHNION RESEARCH AND DEVELOPMENT FOUNDATION, published 2020)
